How the values were obtained:
[1] = biological target: human PIEZO2 in the cryo-EM complexes with MDFIC and MDFIC2 (human) (UniProt Q9H5I5); assay: cryo-EM structure
[2] = biological target: mouse PIEZO1 in the cryo-EM complex with mouse MDFI (mouse) (UniProt E2JF22); assay: cryo-EM structure; settings: remark: other sources report otherwise

stoichiometry N [1]	stoichiometry N [2]	Substance
3	–	human PIEZO2 in the cryo-EM complexes with MDFIC and MDFIC2, Q9H5I5
–	3	mouse PIEZO1 in the cryo-EM complex with mouse MDFI, E2JF22 1-2547

From article doi:10.1101/2025.10.26.684595
